# Experimental data reported in patent publication US20040110684A1.
# Legend:
# [1] = target: wild-type eNOS (construct expressed in COS cells) (UniProt P29474); experiment: cell-based or functional assay
# [2] = target: endothelial nitric oxide synthase (eNOS), endogenous, human umbilical vein endothelial cells (HUVECs) (human) (UniProt P29474); experiment: eNOS IP, phospho-Ser473-Akt immunoblot, HUVEC lysates
# [3] = target: S1177A eNOS mutant (construct expressed in COS cells) (UniProt P29474); experiment: cell-based or functional assay
# S1177A eNOS mutant (construct expressed in COS cells), sequence (P29474 2-1203 S1177A limits assumed): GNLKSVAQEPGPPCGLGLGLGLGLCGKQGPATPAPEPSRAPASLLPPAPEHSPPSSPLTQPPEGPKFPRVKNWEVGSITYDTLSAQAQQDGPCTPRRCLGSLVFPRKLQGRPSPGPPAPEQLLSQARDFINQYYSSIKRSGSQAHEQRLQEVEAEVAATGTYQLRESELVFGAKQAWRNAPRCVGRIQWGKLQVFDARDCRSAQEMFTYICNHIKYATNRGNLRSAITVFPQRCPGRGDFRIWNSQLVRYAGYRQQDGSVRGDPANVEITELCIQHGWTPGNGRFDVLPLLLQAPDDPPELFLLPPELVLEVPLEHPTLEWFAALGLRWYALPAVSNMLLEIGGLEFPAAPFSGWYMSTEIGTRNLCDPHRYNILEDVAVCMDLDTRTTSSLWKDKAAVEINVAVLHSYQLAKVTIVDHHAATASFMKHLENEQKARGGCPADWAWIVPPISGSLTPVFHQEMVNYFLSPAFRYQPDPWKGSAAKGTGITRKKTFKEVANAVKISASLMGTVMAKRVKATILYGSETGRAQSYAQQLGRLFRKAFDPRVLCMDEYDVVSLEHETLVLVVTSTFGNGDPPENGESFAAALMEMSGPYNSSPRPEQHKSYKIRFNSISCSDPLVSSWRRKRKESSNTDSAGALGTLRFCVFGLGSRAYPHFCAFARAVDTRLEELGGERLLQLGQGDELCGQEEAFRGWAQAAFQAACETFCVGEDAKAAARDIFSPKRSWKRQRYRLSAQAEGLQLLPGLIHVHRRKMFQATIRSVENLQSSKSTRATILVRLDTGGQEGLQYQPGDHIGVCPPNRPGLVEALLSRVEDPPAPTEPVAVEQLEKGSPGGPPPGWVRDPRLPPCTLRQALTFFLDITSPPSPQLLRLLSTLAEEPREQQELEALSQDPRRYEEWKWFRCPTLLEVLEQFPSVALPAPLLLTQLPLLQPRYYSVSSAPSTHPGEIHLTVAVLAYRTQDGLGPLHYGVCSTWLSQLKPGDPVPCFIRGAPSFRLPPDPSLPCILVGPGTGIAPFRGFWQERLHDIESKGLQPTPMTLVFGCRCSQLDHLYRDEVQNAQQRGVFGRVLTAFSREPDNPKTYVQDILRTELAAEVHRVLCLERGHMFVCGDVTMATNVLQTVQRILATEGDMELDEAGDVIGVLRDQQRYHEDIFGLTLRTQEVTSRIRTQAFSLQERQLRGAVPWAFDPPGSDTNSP
# wild-type eNOS (construct expressed in COS cells), sequence (P29474 2-1203 limits assumed): as the sequence (P29474 2-1203 S1177A limits assumed) above, with A1176S counted along it
# endothelial nitric oxide synthase (eNOS), endogenous, human umbilical vein endothelial cells (HUVECs) (human), sequence (P29474 2-1203 limits assumed): as the sequence (P29474 2-1203 S1177A limits assumed) above, with A1176S counted along it
Substance,"increase in nitrite production, co-transfected COS cells [1]","increase over basal level of nitrite production, COS cells co-transfected with WT-eNOS, active Akt and also recombinant hsp90 [1]","fold increase of phospho-Akt enrichment in the eNOS IP, statin plus recombinant hsp90 vs statin alone [2]","increase in nitrite production, co-transfected COS cells [3]"
Myc-tagged active Akt (T308D/S473D) (from UniProt P31749 1-480) (enzyme),64%,152%,–,–
"phospho-Ser473-Akt, endogenous, human umbilical vein endothelial cells (HUVECs) (from UniProt P31749 1-480) (enzyme)",–,–,> 3 fold,–
"recombinant hsp90 (expressed from hsp90 cDNA, gift of Dr W. C. Sessa)",49%,–,–,40%
